Consider 12 molecules from patent EP4792821A2 (Beijing Youcare Kechuang Pharmaceutical Technology Co., Ltd., dated 2026).

The star is where a group is joined. Succinyl(4-O-cholesteryl) = CC(C)CCC[C@@H](C)[C@H]1CC[C@H]2[C@@H]3CC=C4C[C@@H](OC(=O)CCC(=O)*)CC[C@]4(C)[C@H]3CC[C@]12C

This assay addresses F protein of RSV A long virus strain (Respiratory Syncytial Virus (RSV) A …, UniProt P12568 26-574). The experiment in a line: cell-based or functional assay.

Sequence of F protein of RSV A long virus strain (P12568 26-574): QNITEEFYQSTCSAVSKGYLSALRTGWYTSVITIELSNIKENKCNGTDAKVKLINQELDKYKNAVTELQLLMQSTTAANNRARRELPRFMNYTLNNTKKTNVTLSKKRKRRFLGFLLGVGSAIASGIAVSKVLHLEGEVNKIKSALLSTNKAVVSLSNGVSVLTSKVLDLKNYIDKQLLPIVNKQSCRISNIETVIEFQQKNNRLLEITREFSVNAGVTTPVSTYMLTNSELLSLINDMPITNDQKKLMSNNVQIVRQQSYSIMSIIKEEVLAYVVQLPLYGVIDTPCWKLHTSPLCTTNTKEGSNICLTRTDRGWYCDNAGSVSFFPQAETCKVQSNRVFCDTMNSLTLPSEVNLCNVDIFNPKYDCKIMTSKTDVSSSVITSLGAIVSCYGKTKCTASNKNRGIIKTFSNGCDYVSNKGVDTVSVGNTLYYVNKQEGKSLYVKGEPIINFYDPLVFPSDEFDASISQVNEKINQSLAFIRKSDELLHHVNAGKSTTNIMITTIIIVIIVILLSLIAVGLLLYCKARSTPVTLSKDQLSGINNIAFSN

For the molecule Ac-DDEFNQKINEVNEKIEEILKKIEESDRKLEESDKKA-NH2 [Compound 2], the “IC50/nM, plaque reduction, RSV A long on HEp-2 cells (Table 2, Cell fusion inhibition activity)” value is greater than 8000 nM.

In the case of Ac-WDEFDKKIEEVNKKIEESLKKIEESDKKLEEVNKKLGSGSGK(Succinyl(4-O-cholesteryl))-NH2 [Compound 11], the “IC50/nM, plaque reduction, RSV A long on HEp-2 cells (Table 2, Cell fusion inhibition activity)” value came out at 99.1 nM.

B1: Compound 10 (peptide)
peptide: Ac-KIEEVNKKIEESLKKIEESDKKLEEVNKKLEAAAKK(Succinyl(4-O-cholesteryl))-NH2
SMILES: CC[C@H](C)[C@H](NC(=O)[C@H](CCCCN)NC(C)=O)C(=O)N[C@@H](CCC(=O)O)C(=O)N[C@@H](CCC(=O)O)C(=O)N[C@H](C(=O)N[C@@H](CC(N)=O)C(=O)N[C@@H](CCCCN)C(=O)N[C@@H](CCCCN)C(=O)N[C@H](C(=O)N[C@@H](CCC(=O)O)C(=O)N[C@@H](CCC(=O)O)C(=O)N[C@@H](CO)C(=O)N[C@@H](CC(C)C)C(=O)N[C@@H](CCCCN)C(=O)N[C@@H](CCCCN)C(=O)N[C@H](C(=O)N[C@@H](CCC(=O)O)C(=O)N[C@@H](CCC(=O)O)C(=O)N[C@@H](CO)C(=O)N[C@@H](CC(=O)O)C(=O)N[C@@H](CCCCN)C(=O)N[C@@H](CCCCN)C(=O)N[C@@H](CC(C)C)C(=O)N[C@@H](CCC(=O)O)C(=O)N[C@@H](CCC(=O)O)C(=O)N[C@H](C(=O)N[C@@H](CC(N)=O)C(=O)N[C@@H](CCCCN)C(=O)N[C@@H](CCCCN)C(=O)N[C@@H](CC(C)C)C(=O)N[C@@H](CCC(=O)O)C(=O)N[C@@H](C)C(=O)N[C@@H](C)C(=O)N[C@@H](C)C(=O)N[C@@H](CCCCN)C(=O)N[C@@H](CCCCNC(=O)CCC(=O)O[C@H]1CC[C@@]2(C)C(=CC[C@H]3[C@@H]4CC[C@H]([C@H](C)CCCC(C)C)[C@@]4(C)CC[C@@H]32)C1)C(N)=O)C(C)C)[C@@H](C)CC)[C@@H](C)CC)C(C)C
Regarding B1, the “IC50/nM, plaque reduction, RSV A long on HEp-2 cells (Table 2, Cell fusion inhibition activity)” value came out at 18.1 nM.

Turning to Ac-FDFDEFDASISQVNEKINESLAFIRLAFIRKSDELLEAAAKK-NH2 [Compound 24], the “IC50/nM, plaque reduction, RSV A long on HEp-2 cells (Table 2, Cell fusion inhibition activity)” value came to 2650 nM.

B2: Compound 19 (peptide)
peptide: Ac-FDASIEEVNRRIEESLRRIEESDRRLEAAAKK(Succinyl(4-O-cholesteryl))-NH2
SMILES: CC[C@H](C)[C@H](NC(=O)[C@H](CO)NC(=O)[C@H](C)NC(=O)[C@H](CC(=O)O)NC(=O)[C@H](Cc1ccccc1)NC(C)=O)C(=O)N[C@@H](CCC(=O)O)C(=O)N[C@@H](CCC(=O)O)C(=O)N[C@H](C(=O)N[C@@H](CC(N)=O)C(=O)N[C@@H](CCCNC(=N)N)C(=O)N[C@@H](CCCNC(=N)N)C(=O)N[C@H](C(=O)N[C@@H](CCC(=O)O)C(=O)N[C@@H](CCC(=O)O)C(=O)N[C@@H](CO)C(=O)N[C@@H](CC(C)C)C(=O)N[C@@H](CCCNC(=N)N)C(=O)N[C@@H](CCCNC(=N)N)C(=O)N[C@H](C(=O)N[C@@H](CCC(=O)O)C(=O)N[C@@H](CCC(=O)O)C(=O)N[C@@H](CO)C(=O)N[C@@H](CC(=O)O)C(=O)N[C@@H](CCCNC(=N)N)C(=O)N[C@@H](CCCNC(=N)N)C(=O)N[C@@H](CC(C)C)C(=O)N[C@@H](CCC(=O)O)C(=O)N[C@@H](C)C(=O)N[C@@H](C)C(=O)N[C@@H](C)C(=O)N[C@@H](CCCCN)C(=O)N[C@@H](CCCCNC(=O)CCC(=O)O[C@H]1CC[C@@]2(C)C(=CC[C@H]3[C@@H]4CC[C@H]([C@H](C)CCCC(C)C)[C@@]4(C)CC[C@@H]32)C1)C(N)=O)[C@@H](C)CC)[C@@H](C)CC)C(C)C
As for B2, the “IC50/nM, plaque reduction, RSV A long on HEp-2 cells (Table 2, Cell fusion inhibition activity)” value turned out to be 16.2 nM.

B3: Compound 31 (peptide)
peptide: Ac-SDEQVNEKINQSLAFIRRIRKLLHNEAAAKK(Succinyl(4-O-cholesteryl))-NH2
SMILES: CC[C@H](C)[C@H](NC(=O)[C@H](Cc1ccccc1)NC(=O)[C@H](C)NC(=O)[C@H](CC(C)C)NC(=O)[C@H](CO)NC(=O)[C@H](CCC(N)=O)NC(=O)[C@H](CC(N)=O)NC(=O)[C@@H](NC(=O)[C@H](CCCCN)NC(=O)[C@H](CCC(=O)O)NC(=O)[C@H](CC(N)=O)NC(=O)[C@@H](NC(=O)[C@H](CCC(N)=O)NC(=O)[C@H](CCC(=O)O)NC(=O)[C@H](CC(=O)O)NC(=O)[C@H](CO)NC(C)=O)C(C)C)[C@@H](C)CC)C(=O)N[C@@H](CCCNC(=N)N)C(=O)N[C@@H](CCCNC(=N)N)C(=O)N[C@H](C(=O)N[C@@H](CCCNC(=N)N)C(=O)N[C@@H](CCCCN)C(=O)N[C@@H](CC(C)C)C(=O)N[C@@H](CC(C)C)C(=O)N[C@@H](Cc1c[nH]cn1)C(=O)N[C@@H](CC(N)=O)C(=O)N[C@@H](CCC(=O)O)C(=O)N[C@@H](C)C(=O)N[C@@H](C)C(=O)N[C@@H](C)C(=O)N[C@@H](CCCCN)C(=O)N[C@@H](CCCCNC(=O)CCC(=O)O[C@H]1CC[C@@]2(C)C(=CC[C@H]3[C@@H]4CC[C@H]([C@H](C)CCCC(C)C)[C@@]4(C)CC[C@@H]32)C1)C(N)=O)[C@@H](C)CC
B3: the “IC50/nM, plaque reduction, RSV A long on HEp-2 cells (Table 2, Cell fusion inhibition activity)” value was 2220 nM.

B4: Compound 33 (peptide)
peptide: Ac-SLEQVNKKINQSLKVNKKSDKLLENEAAAKK(Succinyl(4-O-cholesteryl))-NH2
SMILES: CC[C@H](C)[C@H](NC(=O)[C@H](CCCCN)NC(=O)[C@H](CCCCN)NC(=O)[C@H](CC(N)=O)NC(=O)[C@@H](NC(=O)[C@H](CCC(N)=O)NC(=O)[C@H](CCC(=O)O)NC(=O)[C@H](CC(C)C)NC(=O)[C@H](CO)NC(C)=O)C(C)C)C(=O)N[C@@H](CC(N)=O)C(=O)N[C@@H](CCC(N)=O)C(=O)N[C@@H](CO)C(=O)N[C@@H](CC(C)C)C(=O)N[C@@H](CCCCN)C(=O)N[C@H](C(=O)N[C@@H](CC(N)=O)C(=O)N[C@@H](CCCCN)C(=O)N[C@@H](CCCCN)C(=O)N[C@@H](CO)C(=O)N[C@@H](CC(=O)O)C(=O)N[C@@H](CCCCN)C(=O)N[C@@H](CC(C)C)C(=O)N[C@@H](CC(C)C)C(=O)N[C@@H](CCC(=O)O)C(=O)N[C@@H](CC(N)=O)C(=O)N[C@@H](CCC(=O)O)C(=O)N[C@@H](C)C(=O)N[C@@H](C)C(=O)N[C@@H](C)C(=O)N[C@@H](CCCCN)C(=O)N[C@@H](CCCCNC(=O)CCC(=O)O[C@H]1CC[C@@]2(C)C(=CC[C@H]3[C@@H]4CC[C@H]([C@H](C)CCCC(C)C)[C@@]4(C)CC[C@@H]32)C1)C(N)=O)C(C)C
Regarding B4, the “IC50/nM, plaque reduction, RSV A long on HEp-2 cells (Table 2, Cell fusion inhibition activity)” value came to 5040 nM.

Ac-DEFDKKKIEEVNKKIEESLKKIEESDKKLEEV-NH2 [Compound 3]: the “IC50/nM, plaque reduction, RSV A long on HEp-2 cells (Table 2, Cell fusion inhibition activity)” value is 4430 nM.

Regarding Ac-YDELVFDASQVNEKINQSLEKIRKSDELLHNV-NH2 [Compound 23], the “IC50/nM, plaque reduction, RSV A long on HEp-2 cells (Table 2, Cell fusion inhibition activity)” value came to 2330 nM.

Take Ac-FDASIEEVNRRIEESLRRIEESDRRLEVNKKA-NH2 [Compound 1]: the “IC50/nM, plaque reduction, RSV A long on HEp-2 cells (Table 2, Cell fusion inhibition activity)” value came out at 1360 nM.

B5: Compound 12 (peptide)
peptide: Ac-FDASIEEVNRRIEESLRRIEESDRRLEVNKKAGSGSGK(Succinyl(4-O-cholesteryl))-NH2
SMILES: CC[C@H](C)[C@H](NC(=O)[C@H](CO)NC(=O)[C@H](C)NC(=O)[C@H](CC(=O)O)NC(=O)[C@H](Cc1ccccc1)NC(C)=O)C(=O)N[C@@H](CCC(=O)O)C(=O)N[C@@H](CCC(=O)O)C(=O)N[C@H](C(=O)N[C@@H](CC(N)=O)C(=O)N[C@@H](CCCNC(=N)N)C(=O)N[C@@H](CCCNC(=N)N)C(=O)N[C@H](C(=O)N[C@@H](CCC(=O)O)C(=O)N[C@@H](CCC(=O)O)C(=O)N[C@@H](CO)C(=O)N[C@@H](CC(C)C)C(=O)N[C@@H](CCCNC(=N)N)C(=O)N[C@@H](CCCNC(=N)N)C(=O)N[C@H](C(=O)N[C@@H](CCC(=O)O)C(=O)N[C@@H](CCC(=O)O)C(=O)N[C@@H](CO)C(=O)N[C@@H](CC(=O)O)C(=O)N[C@@H](CCCNC(=N)N)C(=O)N[C@@H](CCCNC(=N)N)C(=O)N[C@@H](CC(C)C)C(=O)N[C@@H](CCC(=O)O)C(=O)N[C@H](C(=O)N[C@@H](CC(N)=O)C(=O)N[C@@H](CCCCN)C(=O)N[C@@H](CCCCN)C(=O)N[C@@H](C)C(=O)NCC(=O)N[C@@H](CO)C(=O)NCC(=O)N[C@@H](CO)C(=O)NCC(=O)N[C@@H](CCCCNC(=O)CCC(=O)O[C@H]1CC[C@@]2(C)C(=CC[C@H]3[C@@H]4CC[C@H]([C@H](C)CCCC(C)C)[C@@]4(C)CC[C@@H]32)C1)C(N)=O)C(C)C)[C@@H](C)CC)[C@@H](C)CC)C(C)C
Regarding B5, the “IC50/nM, plaque reduction, RSV A long on HEp-2 cells (Table 2, Cell fusion inhibition activity)” value amounted to 28.4 nM.

B6: Compound 32 (peptide)
peptide: Ac-ILELVNKKIEQSLKFIEKSDKLLENEAAAKK(Succinyl(4-O-cholesteryl))-NH2
SMILES: CC[C@H](C)[C@H](NC(C)=O)C(=O)N[C@@H](CC(C)C)C(=O)N[C@@H](CCC(=O)O)C(=O)N[C@@H](CC(C)C)C(=O)N[C@H](C(=O)N[C@@H](CC(N)=O)C(=O)N[C@@H](CCCCN)C(=O)N[C@@H](CCCCN)C(=O)N[C@H](C(=O)N[C@@H](CCC(=O)O)C(=O)N[C@@H](CCC(N)=O)C(=O)N[C@@H](CO)C(=O)N[C@@H](CC(C)C)C(=O)N[C@@H](CCCCN)C(=O)N[C@@H](Cc1ccccc1)C(=O)N[C@H](C(=O)N[C@@H](CCC(=O)O)C(=O)N[C@@H](CCCCN)C(=O)N[C@@H](CO)C(=O)N[C@@H](CC(=O)O)C(=O)N[C@@H](CCCCN)C(=O)N[C@@H](CC(C)C)C(=O)N[C@@H](CC(C)C)C(=O)N[C@@H](CCC(=O)O)C(=O)N[C@@H](CC(N)=O)C(=O)N[C@@H](CCC(=O)O)C(=O)N[C@@H](C)C(=O)N[C@@H](C)C(=O)N[C@@H](C)C(=O)N[C@@H](CCCCN)C(=O)N[C@@H](CCCCNC(=O)CCC(=O)O[C@H]1CC[C@@]2(C)C(=CC[C@H]3[C@@H]4CC[C@H]([C@H](C)CCCC(C)C)[C@@]4(C)CC[C@@H]32)C1)C(N)=O)[C@@H](C)CC)[C@@H](C)CC)C(C)C
For B6, the “IC50/nM, plaque reduction, RSV A long on HEp-2 cells (Table 2, Cell fusion inhibition activity)” value turned out to be 296 nM.
